Reference: paper PMC10478522

How the values were obtained:
[1] = molecular target: AcrIC9 from Rhodobacter capsulatus (Rhodobacter capsulatus); assay: SEC-MALS; purified AcrIC9 alone on Superdex 200 Increase 10/300 GL, 20 mM Tris-HCl pH 8.0, 150 mM NaCl, room temperature; dimer to monomers
[2] = molecular target: type IC cascade from Neisseria lactamica with crRNA (Neisseria lactamica); assay: SPR; BIAcore T200; NlaCascade/crRNA complex captured on a Ni-loaded NTA chip (711-826 RU); AcrIC9 injected in twofold dilutions from 125 nM at 30 ul/min, 120 s contact, 240 s dissociation; 25 °C; HBS-P buffer (0.01 M HEPES pH 7.4, 0.15 M NaCl, 0.005% Surfactant P20); 1:1 binding model
[3] = molecular target: type IC cascade from Neisseria lactamica (NlaCascade/crRNA complex) (Neisseria lactamica); assay: SPR; BIAcore T200, NlaCascade/crRNA complex captured on a Ni-NTA chip (711-826 RU), AcrIC9 injected in twofold dilutions from 125 nM (8 to 125 nM), HBS-P buffer (0.01 M HEPES pH 7.4, 0.15 M NaCl, 0.005% P20), 25°C, 1:1 binding model

stoichiometry N [1]: 2 | Kd [2]: 43.2 nM | koff [2]: 0.00404 s⁻¹ | kon [2]: 93500 M⁻¹ s⁻¹ | Kd [3]: 4.32 nM
B1: AcrIC9 from Rhodobacter capsulatus (natural protein)
chain: METKMTSFYKITAYNSQALYFWGTDADVDRYVDWLNRDREINVYAAEAIPEAEWAQYEGRDDVLSGEECGWDDFMSAEA
